As a reminder, the Km is the concentration of substrate that gives half-maximal velocity. As a reminder, the Vmax is the rate approached at saturating substrate. By kcat is commonly meant the number of substrate molecules converted per active site and unit of time at saturation.

Read-outs that look alike come from different tables or passages of the source.

Data set [1] addresses histone H3 purified from calf thymus, P68432.
The target of data set [2] is peptide mimicking the histone H3 tail carrying pS10 modification.
The target of data set [3] is NF-κB p65 (endogenous, Caco 2 nuclear extracts) (human, UniProt Q04206 1-551). Briefly: supershift EMSA of Caco 2 nuclear extracts with anti-p50 and anti-p65 antibodies. (Mobility shift assays separate free from complexed probe on a gel.)
Data set [4] concerns 33P-labeled Erk2 (GST-Erk2 fusion protein phosphorylated in vitro by MEK1).
For data set [5], the target named is 33P-labeled Erk2 (GST-Erk2 fusion protein phosphorylated in vitro by MEK1). The source holds these as a separate data set.

NF-κB p65 (endogenous, Caco 2 nuclear extracts), sequence (Q04206 whole entry, the tested form may be a part): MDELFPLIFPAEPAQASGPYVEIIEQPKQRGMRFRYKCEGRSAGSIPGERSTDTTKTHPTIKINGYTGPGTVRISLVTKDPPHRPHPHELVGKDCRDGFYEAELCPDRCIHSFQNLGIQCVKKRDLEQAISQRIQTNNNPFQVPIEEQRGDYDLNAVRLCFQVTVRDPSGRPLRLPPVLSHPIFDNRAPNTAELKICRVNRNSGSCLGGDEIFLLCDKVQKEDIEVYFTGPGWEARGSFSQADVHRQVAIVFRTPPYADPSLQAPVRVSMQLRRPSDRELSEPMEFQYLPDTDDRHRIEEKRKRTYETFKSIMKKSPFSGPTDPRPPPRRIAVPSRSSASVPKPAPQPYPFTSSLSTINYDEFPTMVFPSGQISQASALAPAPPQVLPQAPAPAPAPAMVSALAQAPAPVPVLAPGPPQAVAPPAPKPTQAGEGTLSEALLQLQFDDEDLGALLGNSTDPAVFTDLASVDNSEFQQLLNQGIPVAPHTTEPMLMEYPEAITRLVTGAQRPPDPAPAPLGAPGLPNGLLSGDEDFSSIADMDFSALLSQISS

B1: lambda phosphatase (protein)
chain: MRYYEKIDGSKYRNIWVVGDLHGCYTNLMNKLDTIGFDNKKDLLISVGDLVDRGAENVECLELITFPWFRAVRGNHEQMMIDGLSERGNVNHWLLNGGGWFFNLDYDKEILAKALAHKADELPLIIELVSKDKKYVICHADYPFDEYEFGKPVDHQQVIWNRERISNSQNGIVKEIKGADTFIFGHTPAVKPLKFANQMYIDTGAVFCGNLTLIQVQGEGA
Regarding B1, the “in vitro dephosphorylation (Western blot, anti-metK9-pS10 antibody)” value in data set [1] is “in contrast to the lambda phosphatase, OspF did not directly dephosphorylate these substrates”. The “in vitro dephosphorylation of peptide” value in data set [2] is “in contrast to the lambda phosphatase, OspF did not directly dephosphorylate these substrates”.

B2: NF-κB p50 (endogenous, Caco 2 nuclear extracts) (other)
chain: MAEDDPYLGRPEQMFHLDPSLTHTIFNPEVFQPQMALPTDGPYLQILEQPKQRGFRFRYVCEGPSHGGLPGASSEKNKKSYPQVKICNYVGPAKVIVQLVTNGKNIHLHAHSLVGKHCEDGICTVTAGPKDMVVGFANLGILHVTKKKVFETLEARMTEACIRGYNPGLLVHPDLAYLQAEGGGDRQLGDREKELIRQAALQQTKEMDLSVVRLMFTAFLPDSTGSFTRRLEPVVSDAIYDSKAPNASNLKIVRMDRTAGCVTGGEEIYLLCDKVQKDDIQIRFYEEEENGGVWEGFGDFSPTDVHRQFAIVFKTPKYKDINITKPASVFVQLRRKSDLETSEPKPFLYYPEIKDKEEVQRKRQKLMPNFSDSFGGGSGAGAGGGGMFGSGGGGGGTGSTGPGYSFPHYGFPTYGGITFHPGTTKSNAGMKHG
Consider B2, for which the binding result in data set [3] was “binds”.

B3: MKP1 (mammalian dual specific phosphatase, Upstate Cell Signaling) (enzyme, UniProt P28562 1-367, looked up, species assumed)
Dual specificity protein phosphatase 1: MVMEVGTLDAGGLRALLGERAAQCLLLDCRSFFAFNAGHIAGSVNVRFSTIVRRRAKGAMGLEHIVPNAELRGRLLAGAYHAVVLLDERSAALDGAKRDGTLALAAGALCREARAAQVFFLKGGYEAFSASCPELCSKQSTPMGLSLPLSTSVPDSAESGCSSCSTPLYDQGGPVEILPFLYLGSAYHASRKDMLDALGITALINVSANCPNHFEGHYQYKSIPVEDNHKADISSWFNEAIDFIDSIKNAGGRVFVHCQAGISRSATICLAYLMRTNRVKLDEAFEFVKQRRSIISPNFSFMGQLLQFESQVLAPHCSAEAGSPAMAVLDRGTSTTTVFNFPVSIPVHSTNSALSYLQSPITTSPSC
As to B3, in data set [4], the Km worked out at 0.229 µM; the Vmax worked out at 6.01 pM/s; the “dephosphorylation of 33P-labeled Erk2 (gel mobility in SDS-PAGE/autoradiography, Western blot)” value was “Dephosphorylation of Erk2 by both enzymes was confirmed”; the turnover number (kcat) stood at 0.0006 s⁻¹.

B4: OspF phosphatase (purified recombinant protein) (protein)
chain: MPIKKPCLKLNLDSLNVVRSEIPQMLSANERLKNNFNILYNQIRQYPAYYFKVASNVPTYSDICQSFSVMYQGFQIVNHSGDVFIHACRENPQSKGDFVGDKFHISIAREQVPLAFQILSGLLFSEDSPIDKWKITDMNRVSQQSRVGIGAQFTLYVKSDQECSQYSALLLHKIRQFIMCLESNLLRSKIAPGEYPASDVRPEDWKYVSYRNELRSDRDGSERQEQMLREEPFYRLMIE
Consider B4, for which, in data set [5], the Km was 0.204 µM; the Vmax is 9.89 pM/s; the “dephosphorylation of 33P-labeled Erk2 (gel mobility in SDS-PAGE/autoradiography, Western blot)” value is listed as “Dephosphorylation of Erk2 by both enzymes was confirmed”; the kcat is 0.0001 s⁻¹. Besides, the “in vitro dephosphorylation (Western blot, anti-metK9-pS10 antibody)” value in data set [1] is “OspF did not directly dephosphorylate these substrates, even when the enzyme concentration was increased 100 fold”. Moreover, the “in vitro dephosphorylation of peptide” value in data set [2] is given as “OspF did not directly dephosphorylate these substrates, even when the enzyme concentration was increased 100 fold”.

The values above are taken from patent publication US20090324646A1 (INSTITUT PASTEUR, published 2009).
